For 38 variants, self-cleavage results are on record in the RNAGym collection of RNA variant scans (doi:10.7554/elife.80360).

First the molecules themselves.
B1: Hairpin Ribozyme (parent)
chain: GUCCUCUUUCACGUGCGCGUGAAAGAGAGAAGUGAACCAGAGAAACACACGUUGUGGUAUAUUACCUGGUA

The variants in the data set derive from B1. Briefly: self-cleavage, relative activity (ratio to wild type); higher = more cleavage; co-transcriptional.
With GACCUCUUUCACGUGCGCGUGAAAUAGAGAAGUGAACCAGAGAAACACACGUUGUGGUAUAUUACCUGGUA [U2A G25U], the self-cleavage came out at 0.204. As for GACCUCUUUCACGUGCGCGUGAAAGAGAGAAGUGAAGCAGAGAAACACACGUUGUGGUAUAUUACCUGGUA [U2A C37G], the self-cleavage stood at 0.123. The figure for GCCCUCUUUCACGUGCGCGUGGAAGAGAGAAGUGAACCAGAGAAACACACGUUGUGGUAUAUUACCUGGUA [U2C A22G] is 0.0938.

Regarding GACUUCUUUCACGUGCGCGUGAAAGAGAGAAGUGAACCAGAGAAACACACGUUGUGGUAUAUUACCUGGUA [U2A C4U], the self-cleavage was 0.0895. Take GCCCUCUUUCACGUGCGCGUGAAAGAGAGAAGUGAACCAGAGAAACUCACGUUGUGGUAUAUUACCUGGUA [U2C A47U]: the self-cleavage was 0.203. Consider GCCCUCUUUCACGUGCGCGUGAAAGAGAGAAGUGAACCAGAGAAACGCACGUUGUGGUAUAUUACCUGGUA [U2C A47G], for which the self-cleavage was determined as 0. The same measure for GCCCUCUUUCACGUGCGCGUGAAAGAGAGCAGUGAACCAGAGAAACACACGUUGUGGUAUAUUACCUGGUA [U2C A30C]: 0.185; for GCCCUCUUUCACGUGCGCGUGAAAGAGAGUAGUGAACCAGAGAAACACACGUUGUGGUAUAUUACCUGGUA [U2C A30U]: 0.0598; for GACCUCUUUCACGUGCGCGUGAAAGAGAGAAGUGAACCAGAGAAACACACGUUGUGGUAUAUUACCAGGUA [U2A U67A]: 0.0652. In the case of GCCCUCUUUCACGUGCGCGUGAAAGAGAGAAGUGAACCAGAGAUACACACGUUGUGGUAUAUUACCUGGUA [U2C A44U], the self-cleavage was 0.201.

With GACCUCUUUCACGUGCGCGUGAAAGAGAGAAGUGAACAAGAGAAACACACGUUGUGGUAUAUUACCUGGUA [U2A C38A], the self-cleavage came out at 0.115. For GACCUCUUUCACGUGCGCGUGAAAGAGAGAAGUGAACGAGAGAAACACACGUUGUGGUAUAUUACCUGGUA [U2A C38G], the self-cleavage was found to be 0.121. GCCCUCUUUCACGUGCGCGUGAAAGAGAGAAGUGAACCAGGGAAACACACGUUGUGGUAUAUUACCUGGUA [U2C A41G]: the self-cleavage worked out at 0.158. For the variant GACCUCUUUCACGUGCGCGUGAAAGAGAGAAGUGAACCAGAGAAACACACCUUGUGGUAUAUUACCUGGUA [U2A G51C], the self-cleavage amounted to 0.125. Regarding GACCUCUUUCACGUGCGCGUGAAAGAGAGAAGUGAACCAGAGAAACACACAUUGUGGUAUAUUACCUGGUA [U2A G51A], the self-cleavage stood at 0.233. Turning to GACCUCUUACACGUGCGCGUGAAAGAGAGAAGUGAACCAGAGAAACACACGUUGUGGUAUAUUACCUGGUA [U2A U9A], the self-cleavage came to 0.201. As to GACCUCUUUCACGUGCGCGUGAAAGAGAGAAGUGAACCAGACAAACACACGUUGUGGUAUAUUACCUGGUA [U2A G42C], the self-cleavage was 0.145.

Regarding GACCUCUUUCACGUGCGCGUGAAAGAGAGAAGUGAACCAGAUAAACACACGUUGUGGUAUAUUACCUGGUA [U2A G42U], the self-cleavage turned out to be 0.122. As to GACCUCUUUCACGUGCGCGUGAAAGAGAGAAGUGAACCAGAGAAACACACGCUGUGGUAUAUUACCUGGUA [U2A U52C], the self-cleavage is 0.169.

Turning to GACCUCUUUCACGUGCGCGUGAAAGAGAGAAGUGAACCAGAGAAACACACGAUGUGGUAUAUUACCUGGUA [U2A U52A], the self-cleavage stood at 0.285.

Regarding GCCCUCUUUCACGUGCGCGUGAAAGAGAGACGUGAACCAGAGAAACACACGUUGUGGUAUAUUACCUGGUA [U2C A31C], the self-cleavage was found to be 0.226.

For GACCUCUUUCACGUGCGCGUGAAAGAGAGAAGUGAACCACAGAAACACACGUUGUGGUAUAUUACCUGGUA [U2A G40C], the self-cleavage came to 0.12. For GACCUCUUUCACGUGCGCGUGAAAGAGAGAAGUGAACCAAAGAAACACACGUUGUGGUAUAUUACCUGGUA [U2A G40A], the self-cleavage worked out at 0.0928. The figure for GACCUCUUUCACGUGCGCGUGAAAGAGAGAAGUGAACCAGAGAAACACACGUUGGGGUAUAUUACCUGGUA [U2A U55G] is 0.109.

For the variant GACCUCUAUCACGUGCGCGUGAAAGAGAGAAGUGAACCAGAGAAACACACGUUGUGGUAUAUUACCUGGUA [U2A U8A], the self-cleavage was 0.279. For GACCUCUGUCACGUGCGCGUGAAAGAGAGAAGUGAACCAGAGAAACACACGUUGUGGUAUAUUACCUGGUA [U2A U8G], the self-cleavage was 0.201. GACCUCUCUCACGUGCGCGUGAAAGAGAGAAGUGAACCAGAGAAACACACGUUGUGGUAUAUUACCUGGUA [U2A U8C]: the self-cleavage was found to be 0.162. Regarding GACCGCUUUCACGUGCGCGUGAAAGAGAGAAGUGAACCAGAGAAACACACGUUGUGGUAUAUUACCUGGUA [U2A U5G], the self-cleavage amounted to 0.166. In the case of GCCCUCUUUCACGUGCGCGUGAAAGUGAGAAGUGAACCAGAGAAACACACGUUGUGGUAUAUUACCUGGUA [U2C A26U], the self-cleavage was determined as 0.13. The same measure for GACCUCUUUCACGUGCGCGUGAAAGAGAGAAGUGAACCAGAGAAACACACGUUGUGGUAUCUUACCUGGUA [U2A A61C]: 0.0595; for GACCUCUUUCACGCGCGCGUGAAAGAGAGAAGUGAACCAGAGAAACACACGUUGUGGUAUAUUACCUGGUA [U2A U14C]: 0.265. The same measure for GACCUCUUUCACGUGCGCGUGAAAGAGAGAAGUGAACCAGAGAAACAAACGUUGUGGUAUAUUACCUGGUA [U2A C48A]: 0.159; for GACCUCUUUCACGUGCGCGUGAAAGAGAGAAGUGAACCAGAGAAACACACGUUGUCGUAUAUUACCUGGUA [U2A G56C]: 0.0929; for GACCUCUUUCACGUGCGCGUGAAAGAGAGAAGUGAACCAGAGAAACACACGUUGUAGUAUAUUACCUGGUA [U2A G56A]: 0.173. For the variant GACCUCUUUCACAUGCGCGUGAAAGAGAGAAGUGAACCAGAGAAACACACGUUGUGGUAUAUUACCUGGUA [U2A G13A], the self-cleavage was determined as 0.26.

As to GACCUCUUUCACCUGCGCGUGAAAGAGAGAAGUGAACCAGAGAAACACACGUUGUGGUAUAUUACCUGGUA [U2A G13C], the self-cleavage was determined as 0.158.

For GACCUCUUUCACGUGCGCGAGAAAGAGAGAAGUGAACCAGAGAAACACACGUUGUGGUAUAUUACCUGGUA [U2A U20A], the self-cleavage came out at 0.198. Consider GACCUCUUUCACGUGCGCGCGAAAGAGAGAAGUGAACCAGAGAAACACACGUUGUGGUAUAUUACCUGGUA [U2A U20C], for which the self-cleavage worked out at 0.336.
